Laboratory results reported in FireProtDB (doi:10.1093/protein/14.12.967).
Values joined by “and” are separate entries in the source; they are usually repeats but may differ in a detail not shown here. Identical values can stand only once.

B1: Lysozyme C, milk isozyme, P81708 (parent)
chain: KIFSKCELARKLKSMGMDGFHGYSLANWVCMAEYESNFNTQAFNGRNSNGSSDYGIFQLNSKWWCKSNSHSSANACNIMCSKFLDDNIDDDIACAKRVVKDPNGMSAWVAWVKHCKGKDLSKYLASCNL

Variants of: B1
Conditions: Canis lupus familiaris, pH 4.5, Thermal, DSC, sodium acetate 50 mM, reversible: yes, structure 1EL1, whole UniProt chain shown

Variant	ddG of mutation (higher = less stable) (66.4 °C)	unfolding enthalpy (calorimetric) (66.4 °C)	unfolding free energy (66.4 °C)	change of melting temperature, mutant - wild type (higher = more stable) (transition: 3)	unfolding enthalpy (calorimetric) (transition: 3)
I56L	0.24 kcal/mol	31.8 kcal/mol	1.91 kcal/mol	-2.44 °C	23.8 kcal/mol and 43.8 kcal/mol
V109K	0.43 kcal/mol	31.9 kcal/mol	1.72 kcal/mol	-4.16 °C	43.8 kcal/mol and 42.8 kcal/mol
H21G	0.48 kcal/mol	29.1 kcal/mol	1.67 kcal/mol	-3.28 °C	29.9 kcal/mol and 40.6 kcal/mol
A93S	0.26 kcal/mol	32 kcal/mol	1.89 kcal/mol	-2.59 °C	39.6 kcal/mol and 43.8 kcal/mol
